Measurements from patent US20090098112A1 (Genentech, published 2009).
Positions count from the first letter of the chain named. Names may count otherwise.

B1: CDR-L1:N28A (Fab, part only; not given: VH end, constant domains, phage fusion, V domains shown, not shown: another chain or arm of the molecule; large carriers)
VL: DIQMTQSPSSLSASVGDRVTITCKASQAVGSDVAWYQQKPGKAPKTLIYSTSYRYSGVPSRFSGSGSGTDFTLTISSLQPEDFATYYCQQYNSYPFTFGQGTKVEIK
VH: EVQLVESGGGLVQPGGSLRLSCAASGYTFTDYYLYWVRQAPGKGLEWIGGISPSNGGTTFNDNFENKATLSVDKSKNTAYLQMNSLRAEDTAVYYCTRDAYGDWYFDVWGQGT
B2: CDR-H2:N54A (Fab, part only; not given: VH end, constant domains, phage fusion, V domains shown, not shown: another chain or arm of the molecule; a dimerising Fc or GST; large carriers)
VL: B1 VL with A28N
VH: B1 VH with N55A
B3: CDR-H2:N62S (Fab, part only; not given: VH end, constant domains, phage fusion, V domains shown, not shown: another chain or arm of the molecule; a dimerising Fc or GST; large carriers)
VL: B1 VL with A28N
VH: B1 VH with N63S
B4: humanized 7H5.v2-IgG (antibody, V domains shown)
VH: B1 VH with N55S, N61A, N63A, N66G
VL: DIQMTQSPSSLSASVGDRVTITCKASQSVGSDVAWYQQKPGKAPKTLIYSTSYRYSGVPSRFSGSGSGTDFTLTISSLQPEDFATYYCQQYSSYPFTFGQGTKVEIKR
notes: also called h7H5.v2
B5: h7H5.v1 (antibody, human IgG1, V domains shown)
VH: B1 VH
VL: B4 VL with S28N, S92N
notes: CDR graft of murine 7H5, as human IgG1; also called humanized 7H5.v1-IgG
B6: h7H5.v3 (antibody, human IgG1, V domains shown)
VH: B1 VH with N55S, N61A, N63S, N66G
VL: B4 VL
notes: as human IgG1; also called humanized 7H5.v3-IgG
B7: h7H5.v5 (antibody, human IgG1, V domains shown)
VH: B1 VH with T30S, I48V, G49S, N55S, N61A, N63A, N66G, K67R, A68F, L70I
VL: B4 VL with T46L
notes: as human IgG1; also called humanized 7H5.v5-IgG
B8: humanized 7H5.v4-IgG (antibody, V domains shown)
VH: B1 VH with T30S, I48V, N55S, N61A, N63A, N66G, K67R, A68F, L70I
VL: B4 VL with T46L
notes: also called h7H5.v4
B9: CDR-L3:N92A (Fab, V domains shown)
VH: B1 VH
VL: B1 VL with A28N, N92A
notes: Fab-phage; also called h7H5.v1 single point mutant, light chain N92A, Fab-phage
B10: CDR-L3:N92S (Fab, V domains shown)
VH: B1 VH
VL: B1 VL with A28N, N92S
notes: Fab-phage; also called h7H5.v1 single point mutant, light chain N92S, Fab-phage; copies: 1 + 1

Experiments:
[1] = molecular target: T1, recombinant human integrin α5β1 (R&D) (human, UniProt P08648 42-995; P05556 21-728); assay: phage competition ELISA: Fab-phage incubated with serially diluted soluble human integrin α5β1, unbound phage captured on plate-coated integrin α5β1, anti-M13-HRP, A450
T1 construct: Bought recombinant heterodimer (R&D); It was used coated on plates and in solution in the phage ELISA, and as analyte or immobilized in BIAcore; also called alpha5beta1; a5b1
Method: Mutation at each position was generated by Kunkel mutagenesis using a separate oligonucleotide. Phage competition ELISA was utilized for evaluating all of the variants. […] Binding affinities (IC50) against human integrin α5β1 was determined.
(§1) MAXISORP™ microtiter plates were coated with recombinant human integrin α5β1 (R&D) at 5 μg/ml in PBS overnight and then blocked with PBST buffer (0.5% BSA and 0.05% Tween 20 in PBS) for an hour at room temperature. Phage from culture supernatants were incubated with serially diluted human integrin α5β1 in PBST buffer in a tissue-culture microtiter plate for an hour, after which 80 μl of the mixture was transferred to the target-coated wells for 15 minutes to capture unbound phage. The plate was washed with PBT buffer (0.05% Tween 20 in PBS), and HRP-conjugated anti-M13 (Amersham Pharmacia Biotech) was added (1:5000 in PBST buffer) for 40 minutes. The plate was washed with PBT buffer and developed by adding tetramethylbenzidine substrate (Kirkegaard and Perry Laboratories, Gaithersburg, Md.). The absorbance at 450 nm was plotted as a function of target concentration in solution to determine phage IC₅₀.

[2] = molecular target: T1, recombinant human integrin α5β1 (R&D); assay: phage competition ELISA IC50 of the Fab-phage against human integrin α5β1, relative to parental h7H5.v1; down arrow = loss, up arrow = improvement of binding affinity
Method: Substitutions with other resides at various positions was achieved by Kunkel mutagenesis using a separate oligonucleotide for each position. […] The IC50 values for binding affinity were determined by phage competition ELISA in FIG. 6. Two variants, h7H5.v2 and h7H5.v3 as indicated were selected to include glycine substitution at position 65 of CDR-H2, cloned into hIgG1 vector, and evaluated binding affinities using BIAcore instrument.
as §1

[3] = molecular target: T1, recombinant human integrin α5β1 (R&D); assay: SPR (BIACORE-3000), antibody immobilized on CM5 chip (about 450 RU), human integrin α5β1 injected 300 nM to 0.29 nM, 25 °C, 1:1 Langmuir fit
Method: FIG. 7 depicts the results of a BIACORE® analysis of humanized 7H5.v1, v2 and v3-IgG against human integrin α5β1. […] Humanized 7H5.v2 indicates the most binding affinity improvement in off-rate.
(§2) Affinity determinations were performed by surface-plasmon resonance using a BIACORE™-3000 instrument. Immobilization was achieved by random coupling through amino groups using a protocol provided by the manufacturer. Two different formats were operated to study binding kinetics for antibody against human integrin α5β1. In FIGS. 3A, 7, and 9A, antibodies were immobilized on a CM5 sensor chip around 450 response units (RU), and 2-fold serial diluted concentrations of human integrin α5β1 (300 nM to 0.29 nM) in PBT buffer (0.05% Tween 20 in PBS) were injected with a flow rate of 30 μl/min at 25° C. In FIGS. 3B and 9B, human integrin […] was immobilized on a CM5 sensor chip around 800 RU, and 2-fold serial diluted concentrations of antibodies (200 nM to 0.2 nM) in PBT buffer (0.05% Tween 20 in PBS) were injected with a flow rate of 30 μl/min at 25° C. After each injection, the chip was regenerated using 10 mM Glycine-HCl buffer at pH 1.7. Binding response was corrected by subtracting the RU from a blank flow cell. Association rates (kₒₙ) and dissociation rates (koff) were calculated using a simple one-to-one Langmuir binding model (BIAcore Evaluation Software version 3.2). The equilibrium dissociation constant (Kd) was calculated as the ratio koff/kₒₙ.

[4] = molecular target: T1, recombinant human integrin α5β1 (R&D); assay: SPR (BIACORE-3000), human integrin α5β1 immobilized on CM5 chip (about 800 RU), antibody injected 200 nM to 0.2 nM, 25 °C, 1:1 Langmuir fit
Method: (§3) FIG. 9 depicts the results of a BIACORE® analysis of humanized 7H5.v2, v4 and v5-IgG against human integrin α5β1.
as §2

[5] = molecular target: T1, recombinant human integrin α5β1 (R&D); assay: SPR (BIACORE-3000), antibody immobilized on CM5 chip (about 450 RU), human integrin α5β1 injected 300 nM to 0.29 nM, 25 °C, 1:1 Langmuir fit; remark: listed apart in the source
Method: as §3, §2

[6] = molecular target: T1, recombinant human integrin α5β1 (R&D); assay: as above; remark: listed apart in the source
Method: (§4) FIG. 3 depicts the results of a BIACORE® analysis of chimeric 7H5-IgG and humanized 7H5.v1-IgG against human integrin α5β1.
as §2

[7] = molecular target: T1, recombinant human integrin α5β1 (R&D); assay: SPR (BIACORE-3000), human integrin α5β1 (R&D) immobilized on CM5 chip (about 800 RU), antibody injected 200 nM to 0.2 nM, 25 °C, 1:1 Langmuir fit
Method: as §4, §2

T1 sequence (P08648 42-995 limits assumed, chain 1 of 2): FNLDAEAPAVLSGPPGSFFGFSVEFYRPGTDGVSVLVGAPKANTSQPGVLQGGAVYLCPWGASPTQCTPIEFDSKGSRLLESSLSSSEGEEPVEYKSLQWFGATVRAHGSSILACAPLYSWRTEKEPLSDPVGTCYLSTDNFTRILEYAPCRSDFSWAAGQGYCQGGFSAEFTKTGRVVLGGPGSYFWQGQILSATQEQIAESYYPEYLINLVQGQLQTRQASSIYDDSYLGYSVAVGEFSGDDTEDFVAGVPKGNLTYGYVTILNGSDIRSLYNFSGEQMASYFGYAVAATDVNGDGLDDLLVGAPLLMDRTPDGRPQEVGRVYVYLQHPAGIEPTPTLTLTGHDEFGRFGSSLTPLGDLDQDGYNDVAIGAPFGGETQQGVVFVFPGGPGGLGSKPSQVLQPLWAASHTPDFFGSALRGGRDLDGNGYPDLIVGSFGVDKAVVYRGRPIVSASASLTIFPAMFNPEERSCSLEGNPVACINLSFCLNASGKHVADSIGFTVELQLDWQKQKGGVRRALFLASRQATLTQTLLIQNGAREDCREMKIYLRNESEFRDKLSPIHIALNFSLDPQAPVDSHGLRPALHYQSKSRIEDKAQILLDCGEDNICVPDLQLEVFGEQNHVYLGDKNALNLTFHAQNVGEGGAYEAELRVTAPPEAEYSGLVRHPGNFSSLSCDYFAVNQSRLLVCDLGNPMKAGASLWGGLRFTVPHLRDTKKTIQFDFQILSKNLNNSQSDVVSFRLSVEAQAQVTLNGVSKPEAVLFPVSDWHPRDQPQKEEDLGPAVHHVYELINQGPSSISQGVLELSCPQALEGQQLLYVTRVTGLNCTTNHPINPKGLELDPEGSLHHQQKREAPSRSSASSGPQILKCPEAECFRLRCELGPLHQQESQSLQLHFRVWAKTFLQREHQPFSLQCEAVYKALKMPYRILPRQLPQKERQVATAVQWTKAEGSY
T1 sequence (P05556 21-728 limits assumed, chain 2 of 2): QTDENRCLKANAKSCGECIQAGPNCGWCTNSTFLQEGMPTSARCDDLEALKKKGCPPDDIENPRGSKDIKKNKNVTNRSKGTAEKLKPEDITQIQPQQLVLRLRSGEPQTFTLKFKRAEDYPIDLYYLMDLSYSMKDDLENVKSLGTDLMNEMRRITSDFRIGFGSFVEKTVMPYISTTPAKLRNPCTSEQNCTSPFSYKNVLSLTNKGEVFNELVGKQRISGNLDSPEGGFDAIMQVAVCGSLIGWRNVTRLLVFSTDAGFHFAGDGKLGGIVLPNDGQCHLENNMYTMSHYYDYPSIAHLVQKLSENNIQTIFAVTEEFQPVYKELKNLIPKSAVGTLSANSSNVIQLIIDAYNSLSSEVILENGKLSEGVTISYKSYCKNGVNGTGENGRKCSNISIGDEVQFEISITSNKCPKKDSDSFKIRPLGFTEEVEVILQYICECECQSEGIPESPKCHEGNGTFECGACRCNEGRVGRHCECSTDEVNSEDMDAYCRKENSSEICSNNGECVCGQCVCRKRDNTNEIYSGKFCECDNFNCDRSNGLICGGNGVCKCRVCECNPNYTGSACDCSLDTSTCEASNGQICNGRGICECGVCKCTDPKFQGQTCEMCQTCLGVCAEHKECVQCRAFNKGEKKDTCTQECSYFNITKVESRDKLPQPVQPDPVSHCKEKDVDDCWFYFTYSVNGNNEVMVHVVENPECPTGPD

| Binder | IC50 (read off the curve) [1] [nM] | Relative Fold to h7H5.v1 [2] [fold] | Kd [3] [nM] | koff [3] [s⁻¹] | kon [3] [M⁻¹ s⁻¹] | Kd [4] [nM] | koff [4] [s⁻¹] | kon [4] [M⁻¹ s⁻¹] | Kd [5] [nM] | koff [5] [s⁻¹] | kon [5] [M⁻¹ s⁻¹] | other results |
| --- | --- | --- | --- | --- | --- | --- | --- | --- | --- | --- | --- | --- |
| B1 | 0.2 | 2.1 | – | – | – | – | – | – | – | – | – | – |
| B2 | 0.2 | 2.4 | – | – | – | – | – | – | – | – | – | – |
| B3 | 0.1 | 1.3 | – | – | – | – | – | – | – | – | – | – |
| B4 | – | – | 0.77 | 6.2e-05 | 81000 | 0.11 | 0.00015 | 1.4e+06 | 0.77 | 6.4e-05 | 83000 | – |
| B5 | – | – | 1.91 | 8.2e-05 | 43000 | – | – | – | – | – | – | Kd [6]: 3.67 nM; koff [6]: 0.00018 s⁻¹; kon [6]: 49000 M⁻¹ s⁻¹; Kd [7]: 0.23 nM; koff [7]: 0.0002 s⁻¹; kon [7]: 870000 M⁻¹ s⁻¹ |
| B6 | – | – | 1.07 | 7.5e-05 | 70000 | – | – | – | – | – | – | – |
| B7 | – | – | – | – | – | 0.26 | 0.00017 | 660000 | 0.97 | 6.7e-05 | 69000 | – |
| B8 | – | – | – | – | – | 0.14 | 0.00013 | 930000 | 0.73 | 5.5e-05 | 75000 | – |
| B9 | – | 1 | – | – | – | – | – | – | – | – | – | – |
| B10 | – | 1 | – | – | – | – | – | – | – | – | – | – |
